T1: human ALPL on CHO cells (human, UniProt P05186 18-501)
T1 construct: whole, on cells; also called CHO-ALPL
T1 sequence (looked up): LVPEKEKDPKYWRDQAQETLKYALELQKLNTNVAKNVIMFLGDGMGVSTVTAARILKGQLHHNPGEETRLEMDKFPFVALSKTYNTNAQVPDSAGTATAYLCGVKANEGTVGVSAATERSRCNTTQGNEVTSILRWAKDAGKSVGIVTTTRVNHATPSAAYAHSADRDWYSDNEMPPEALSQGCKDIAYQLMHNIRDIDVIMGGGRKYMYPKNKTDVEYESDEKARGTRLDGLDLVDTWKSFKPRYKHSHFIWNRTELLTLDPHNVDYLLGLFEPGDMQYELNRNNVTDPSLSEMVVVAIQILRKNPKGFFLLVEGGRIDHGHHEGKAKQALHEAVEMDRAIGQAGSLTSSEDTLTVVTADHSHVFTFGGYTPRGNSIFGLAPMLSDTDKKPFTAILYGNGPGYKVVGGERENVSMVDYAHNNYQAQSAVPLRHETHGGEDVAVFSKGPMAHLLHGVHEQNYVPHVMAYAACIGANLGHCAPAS


Molecular target: T1, human ALPL on CHO cells
Assay: flow cytometry, CHO cells stably expressing human ALPL; PDC detected with FITC anti-human Ab
Protocol: Biparatopic VHH-hFc drug conjugates were assessed for human ALPP, ALPPL2, ALPI and ALPL cell-surface binding by flow cytometry. Binders were screened on CHO cells stably expressing human ALPP, ALPPL2, ALPI or ALPL.
Cell surface binding of test agents to hALPP isoforms was characterized in four CHO-ALPP isoform transfectant cell lines (CHO-ALPP, CHO-ALPPL2, CHO-ALPI and CHO-ALPL) and the resulting KDapp values determined. Adherent cells were detached from tissue culture flasks by incubating with 0.1% EDTA/PBS solution at 37° C. for […] or until cells detached easily. Cells were re-suspended in ice-cold PBS/2% FCS in 15 ml tubes and centrifuged at 1700 rpm for 5 mins at 4° C. Supernatant was removed and the cell pellet re-suspended in PBS/2% FCS. […] Cells were incubated with 100 μl of test agents at a range of concentrations, plus controls for 1 hr on ice. The sample plate was centrifuged at 1700 rpm for 5 mins at 4° C. The supernatant was removed, and a wash performed by re-suspending the cell pellets in 0.25 mL of ice-cold PBS/2% FCS using a multichannel pipette. Samples were again centrifuged at 1700 rpm for 5 min at 4° C. Supernatant was removed and two further washes performed as described. After the final wash and centrifugation step, excess liquid was removed by blotting the plate on tissue paper. Binding of VHH-hFc agents was determined by adding 100 μl of Fitc-anti-human Ab (ThermoFisher) and incubating for 30 mins on ice in the dark. Wash steps were performed as described previously. All cell pellets were finally re-suspended in 0.28 ml of ice-cold PBS/2% FCS and left on ice in the dark prior to analysis on a Merck-Millipore Guava EasyCyte HT or Thermo Fisher Attune N×T flow cytometer.

| Binder | binding result |
| --- | --- |
| A06-E06-hFc-vcPAB-MMAE [G4S]1 (Fc fusion, DAR 4, MC-vc-PAB-MMAE on Cys 239 and Cys 442 (EU numbering), Biparatopic drug conjugate, DAR 4; also called #710) chain 1: QVHLVESGGGLVQAGGSLRLSCAASGRTFLSMGWFRQAPGKEREFVAAISWTGGSTGYADSVKGRFTISRESDKETMYLQMNSLKPEDTAVYYCAARGDVYYGGDDATRYKYWGQGTQVTVSSGGGGSEPKSSDKTHTCPPCPAPELLGGPCVFLFPPKPKDTLMISRTPEVTCVVVDVSHEDPEVKFNWYVDGVEVHNAKTKPREEQYNSTYRVVSVLTVLHQDWLNGKEYKCKVSNKALPAPIEKTISKAKGQPREPQVYTLPPSRDELTKNQVSLYCLVKGFYPSDIAVEWESNGQPENNYKTTPPVLDSDGSFFLYSKLTVDKSRWQQGNVFSCSVMHEALHNHYTQKSLCLSPGK chain 2: QVHLVESGGGLVQAGGSLRLSCAASRRSFSEYAMGWFRQAPGKEREFVAAIGWSGVIEYADSVKGRFTISRDNAKDTVYLQMNSLKPEDTAVYYCAAGLGIRVVSQTPAYWGQGTQVTVSSGGGGSEPKSSDKTHTCPPCPAPELLGGPCVFLFPPKPKDTLMISRTPEVTCVVVDVSHEDPEVKFNWYVDGVEVHNAKTKPREEQYNSTYRVVSVLTVLHQDWLNGKEYKCKVSNKALPAPIEKTISKAKGQPREPQVYTLPPSRDELTKNQVSLTCLVKGFYPSDIAVEWESNGQPENNYKTTPPVLDSDGSFFLTSKLTVDKSRWQQGNVFSCSVMHEALHNHYTQKSLCLSPGK | no binding (tested: 350 nM) |
| A06-E10-hFc-vcPAB-MMAE [G4S]1 (Fc fusion, DAR 4, MC-vc-PAB-MMAE on Cys 239 and Cys 442 (EU numbering), Biparatopic drug conjugate, DAR 4; also called #711) chain 1: QVHLVESGGGLVQAGGSLRLSCAASGRTFLSMGWFRQAPGKEREFVAAISWTGGSTGYADSVKGRFTISRESDKETMYLQMNSLKPEDTAVYYCAARGDVYYGGDDATRYKYWGQGTQVTVSSGGGGSEPKSSDKTHTCPPCPAPELLGGPCVFLFPPKPKDTLMISRTPEVTCVVVDVSHEDPEVKFNWYVDGVEVHNAKTKPREEQYNSTYRVVSVLTVLHQDWLNGKEYKCKVSNKALPAPIEKTISKAKGQPREPQVYTLPPSRDELTKNQVSLYCLVKGFYPSDIAVEWESNGQPENNYKTTPPVLDSDGSFFLYSKLTVDKSRWQQGNVFSCSVMHEALHNHYTQKSLCLSPGK chain 2: QVQLVESGGGLVQAGGSLRLSCAVSGRALSDYNIGWFRQAPGKEREFVARKTWDGSSTRYDDSVKGRFTVSIEDAKNTAYLQMSSLKTEDTAVYYCAAGRYSRARGWEYDYWGQGTQVTVSSGGGGSEPKSSDKTHTCPPCPAPELLGGPCVFLFPPKPKDTLMISRTPEVTCVVVDVSHEDPEVKFNWYVDGVEVHNAKTKPREEQYNSTYRVVSVLTVLHQDWLNGKEYKCKVSNKALPAPIEKTISKAKGQPREPQVYTLPPSRDELTKNQVSLTCLVKGFYPSDIAVEWESNGQPENNYKTTPPVLDSDGSFFLTSKLTVDKSRWQQGNVFSCSVMHEALHNHYTQKSLCLSPGK | no binding (tested: 350 nM) |
| A06-F05-hFc-vcPAB-MMAE [G4S]1 (Fc fusion, DAR 4, MC-vc-PAB-MMAE on Cys 239 and Cys 442 (EU numbering), Biparatopic drug conjugate, DAR 4) chain 1: QVHLVESGGGLVQAGGSLRLSCAASGRTFLSMGWFRQAPGKEREFVAAISWTGGSTGYADSVKGRFTISRESDKETMYLQMNSLKPEDTAVYYCAARGDVYYGGDDATRYKYWGQGTQVTVSSGGGGSEPKSSDKTHTCPPCPAPELLGGPCVFLFPPKPKDTLMISRTPEVTCVVVDVSHEDPEVKFNWYVDGVEVHNAKTKPREEQYNSTYRVVSVLTVLHQDWLNGKEYKCKVSNKALPAPIEKTISKAKGQPREPQVYTLPPSRDELTKNQVSLYCLVKGFYPSDIAVEWESNGQPENNYKTTPPVLDSDGSFFLYSKLTVDKSRWQQGNVFSCSVMHEALHNHYTQKSLCLSPGK chain 2: QVQLVESGGGLVQAGGSLRLSCAASGRAFGDYNIGWFRQAPGKEREFVARRTWDGSSTRYDDSVKGRFTVSIDNAKNTAYLQMNSLKTEDTAVYYCAAGRYSRVRGWEYDYWGQGTQVTVSSGGGGSEPKSSDKTHTCPPCPAPELLGGPCVFLFPPKPKDTLMISRTPEVTCVVVDVSHEDPEVKFNWYVDGVEVHNAKTKPREEQYNSTYRVVSVLTVLHQDWLNGKEYKCKVSNKALPAPIEKTISKAKGQPREPQVYTLPPSRDELTKNQVSLTCLVKGFYPSDIAVEWESNGQPENNYKTTPPVLDSDGSFFLTSKLTVDKSRWQQGNVFSCSVMHEALHNHYTQKSLCLSPGK | no binding (tested: 350 nM) |
| A06-E10 hFc-vcPAB-MMAE [G4S]3 (Fc fusion, DAR 4, MC-vc-PAB-MMAE on Cys 239 and Cys 442 (EU numbering), Biparatopic drug conjugate, DAR 4) chain 1: QVHLVESGGGLVQAGGSLRLSCAASGRTFLSMGWFRQAPGKEREFVAAISWTGGSTGYADSVKGRFTISRESDKETMYLQMNSLKPEDTAVYYCAARGDVYYGGDDATRYKYWGQGTQVTVSSGGGGSGGGGSGGGGSEPKSSDKTHTCPPCPAPELLGGPCVFLFPPKPKDTLMISRTPEVTCVVVDVSHEDPEVKFNWYVDGVEVHNAKTKPREEQYNSTYRVVSVLTVLHQDWLNGKEYKCKVSNKALPAPIEKTISKAKGQPREPQVYTLPPSRDELTKNQVSLYCLVKGFYPSDIAVEWESNGQPENNYKTTPPVLDSDGSFFLYSKLTVDKSRWQQGNVFSCSVMHEALHNHYTQKSLCLSPGK chain 2: QVQLVESGGGLVQAGGSLRLSCAVSGRALSDYNIGWFRQAPGKEREFVARKTWDGSSTRYDDSVKGRFTVSIEDAKNTAYLQMSSLKTEDTAVYYCAAGRYSRARGWEYDYWGQGTQVTVSSGGGGSGGGGSGGGGSEPKSSDKTHTCPPCPAPELLGGPCVFLFPPKPKDTLMISRTPEVTCVVVDVSHEDPEVKFNWYVDGVEVHNAKTKPREEQYNSTYRVVSVLTVLHQDWLNGKEYKCKVSNKALPAPIEKTISKAKGQPREPQVYTLPPSRDELTKNQVSLTCLVKGFYPSDIAVEWESNGQPENNYKTTPPVLDSDGSFFLTSKLTVDKSRWQQGNVFSCSVMHEALHNHYTQKSLCLSPGK | no binding (tested: 350 nM) |

Results, then the binder that gave them:

| binding result | Binder |
| --- | --- |
| no binding (tested: 350 nM) | A06-E06 hFc-vcPAB-MMAE [G4S]3 (Fc fusion, DAR 4, MC-vc-PAB-MMAE on Cys 239 and Cys 442 (EU numbering), Biparatopic drug conjugate, DAR 4; also called #639) chain 1: QVHLVESGGGLVQAGGSLRLSCAASGRTFLSMGWFRQAPGKEREFVAAISWTGGSTGYADSVKGRFTISRESDKETMYLQMNSLKPEDTAVYYCAARGDVYYGGDDATRYKYWGQGTQVTVSSGGGGSGGGGSGGGGSEPKSSDKTHTCPPCPAPELLGGPCVFLFPPKPKDTLMISRTPEVTCVVVDVSHEDPEVKFNWYVDGVEVHNAKTKPREEQYNSTYRVVSVLTVLHQDWLNGKEYKCKVSNKALPAPIEKTISKAKGQPREPQVYTLPPSRDELTKNQVSLYCLVKGFYPSDIAVEWESNGQPENNYKTTPPVLDSDGSFFLYSKLTVDKSRWQQGNVFSCSVMHEALHNHYTQKSLCLSPGK chain 2: QVHLVESGGGLVQAGGSLRLSCAASRRSFSEYAMGWFRQAPGKEREFVAAIGWSGVIEYADSVKGRFTISRDNAKDTVYLQMNSLKPEDTAVYYCAAGLGIRVVSQTPAYWGQGTQVTVSSGGGGSGGGGSGGGGSEPKSSDKTHTCPPCPAPELLGGPCVFLFPPKPKDTLMISRTPEVTCVVVDVSHEDPEVKFNWYVDGVEVHNAKTKPREEQYNSTYRVVSVLTVLHQDWLNGKEYKCKVSNKALPAPIEKTISKAKGQPREPQVYTLPPSRDELTKNQVSLTCLVKGFYPSDIAVEWESNGQPENNYKTTPPVLDSDGSFFLTSKLTVDKSRWQQGNVFSCSVMHEALHNHYTQKSLCLSPGK |
| no binding (tested: 350 nM) | A06-F05 hFc-vcPAB-MMAE [G4S]3 (Fc fusion, DAR 4, MC-vc-PAB-MMAE on Cys 239 and Cys 442 (EU numbering), Biparatopic drug conjugate, DAR 4) chain 1: QVHLVESGGGLVQAGGSLRLSCAASGRTFLSMGWFRQAPGKEREFVAAISWTGGSTGYADSVKGRFTISRESDKETMYLQMNSLKPEDTAVYYCAARGDVYYGGDDATRYKYWGQGTQVTVSSGGGGSGGGGSGGGGSEPKSSDKTHTCPPCPAPELLGGPCVFLFPPKPKDTLMISRTPEVTCVVVDVSHEDPEVKFNWYVDGVEVHNAKTKPREEQYNSTYRVVSVLTVLHQDWLNGKEYKCKVSNKALPAPIEKTISKAKGQPREPQVYTLPPSRDELTKNQVSLYCLVKGFYPSDIAVEWESNGQPENNYKTTPPVLDSDGSFFLYSKLTVDKSRWQQGNVFSCSVMHEALHNHYTQKSLCLSPGK chain 2: QVQLVESGGGLVQAGGSLRLSCAASGRAFGDYNIGWFRQAPGKEREFVARRTWDGSSTRYDDSVKGRFTVSIDNAKNTAYLQMNSLKTEDTAVYYCAAGRYSRVRGWEYDYWGQGTQVTVSSGGGGSGGGGSGGGGSEPKSSDKTHTCPPCPAPELLGGPCVFLFPPKPKDTLMISRTPEVTCVVVDVSHEDPEVKFNWYVDGVEVHNAKTKPREEQYNSTYRVVSVLTVLHQDWLNGKEYKCKVSNKALPAPIEKTISKAKGQPREPQVYTLPPSRDELTKNQVSLTCLVKGFYPSDIAVEWESNGQPENNYKTTPPVLDSDGSFFLTSKLTVDKSRWQQGNVFSCSVMHEALHNHYTQKSLCLSPGK |
